# Laboratory results as given in patent publication US20190225670A1, “COMPOUNDS AND METHODS FOR ACTIVATING TIE2 SIGNALING” (ASCLEPIX THERAPEUTICS, LLC, priority 2016, published 2019).
# Columns and labels:
# β1 integrin subunit = target: T1, β1 integrin subunit (Homo sapiens, UniProt P05556); experiment: Triton X-100 fractionation of MEC lysates, β1 integrin; format: cell-based
# T1 construct: host or cells: human dermal microvascular endothelial cells (MEC)
# Source text: Since β1 integrin is the only known β subunit to heterodimerize with the α5 integrin subunit, it unlikely that the as subunit, that was observed here in the insoluble fractions, originated from a heterodimeric integrin pair other than α5β1. Unfortunately, high background impaired the visualization of α5 integrin alone by immunofluorescence. Given the unexpected discovery that AXT107 dissociates the integrin heterodimer, this discovery was confirmed in several independent assays. […] Thus, interactions between Tie2 and heterodimerized α5β1 integrin appear to retain Tie2 at the EC-ECM interface.
# The isolation of Triton X-100 soluble and insoluble fractions was performed using modifications to previously-described procedures (see, e.g., Lampugnani et al., J Cell Biol. 1995; 129(1):203-217). FN1-coated six-well plates were seeded with 2.5×10^6 cells and cultured for forty-eight hours, as described above. The cultures were then serum starved for ninety minutes in EBM-2 media, treated with 100 μM AXT107 or DMSO vehicle, and fifteen minutes with 1 mM sodium vanadate. The cells were then stimulated with either 100 ng/ml VEGFA, 400 ng/ml Ang2, or PBS for fifteen minutes. The plates were then transferred to ice and washed twice with cold dPBS containing Ca^2+ and Mg^2+ and twice with EBM-2 media. […] Samples were analyzed by western blot as described above. […]
# integrin αvβ3 = integrin αvβ3 (Homo sapiens, UniProt P05106+P06756); conditions: Lee et al., Sci Rep. 2014; cited from earlier work
# [1] = test system: VEGFR2, c-Met, IGF1R, and PDGFRβ; conditions: Lee et al., Sci Rep. 2014; cited from earlier work
# Erk1/2 = experiment: Western blot of phospho-Erk1/2 in MEC lysates treated with Ang2 and AXT107; format: cell-based, human; conditions: AXT107 and Ang2, all tested conditions
# Procedure: For Ang1/2 signaling investigations, cell culture dishes (10 cm diameter) were coated with 5 μg/ml fibronectin (FN1; Sigma-Aldrich, St. Louis, Mo.) for two hours at 37° C. The FN1 solution was then removed by aspiration and 5×10^6 microvascular endothelial cells (MECs; Lonza, Walkersville, Md.) were plated in EGM-2MV media (Lonza) and cultured for forty-eight hours at 37° C. The cells were then serum starved for sixteen hours in serum-free EGM-2 base media (Lonza). AXT107 (0-100 μM, as indicated) was subsequently added to each culture and incubated for seventy-five minutes at 37° C. The cultures were then treated with 1 mM sodium vanadate (New England Biolabs, Ipswich, Mass.) for fifteen minutes to enhance the phospho-Tie2 signal followed by stimulation with 200 ng/ml angiopoietin (R&D Systems, Minneapolis, Minn.) for an additional fifteen minutes. […] Specific proteins were identified by Western blot, using the following primary antibodies: Cell Signaling—phospho-Tie2 (Y992) (Cat#: 4221), Tie2 (Cat#: 7403), phospho-Stat3 (Y705) (Cat#: 4113), Stat3 (Cat#: 4904), phospho-Akt (S473) (Cat#: 4058), Akt (Cat#: 9272), phospho-p44/42 MAPK (T202/Y204) (Cat#: 4370), p44/42 MAPK (Cat#: 4695); BD Transduction Laboratories—β1 integrin (Cat#: 610467); Millipore—α5 integrin (Cat#: AB1928) and detected with HRP-conjugated goat anti-rabbit and sheep anti-mouse secondary antibodies (GE healthcare).
# [2] = target: T2, α5 and β1 integrin subunits (Homo sapiens, UniProt P05556+P08648); experiment: Duolink protein interaction analysis; format: cell-based; conditions: MEC monolayers; 100 μM AXT107 vs vehicle
# T2 construct: host or cells: human dermal microvascular endothelial cells (MEC)
# Procedure: Additionally, changes in the interaction between the α5 s and β1 subunits were further investigated using Duolink™ technology which can visualize individual interactions between α5 and β1 integrin subunits as distinct spots by fluorescence microscopy.
# Glass bottom, 96-well plates were coated with FN1, seeded with MECs, as described above for the immunofluorescence experiments. After growing for forty-eight hours, cells were serum starved for three hours, treated with 100 μM AXT107 or DMSO vehicle for ninety minutes, washed twice with dPBS containing Ca^2+ and Mg^2+, and fixed in 10% neutral buffered formalin. Cells were blocked in 5% normal goat serum; 0.3% Triton X-100 in dPBS containing Ca^2+ and Mg^2+ for one hour and incubated overnight at 4° C. with rabbit anti-α5 integrin and mouse anti-β1 integrin antibodies in PBS containing Ca^2+ and Mg^2+ with 1% BSA and 0.1% Triton X-100. Interaction spots were developed using DUOLINK green detection reagent according to the manufacturer's instructions and detected using the BD pathway 855 system.
# T1 sequence (P05556 21-798): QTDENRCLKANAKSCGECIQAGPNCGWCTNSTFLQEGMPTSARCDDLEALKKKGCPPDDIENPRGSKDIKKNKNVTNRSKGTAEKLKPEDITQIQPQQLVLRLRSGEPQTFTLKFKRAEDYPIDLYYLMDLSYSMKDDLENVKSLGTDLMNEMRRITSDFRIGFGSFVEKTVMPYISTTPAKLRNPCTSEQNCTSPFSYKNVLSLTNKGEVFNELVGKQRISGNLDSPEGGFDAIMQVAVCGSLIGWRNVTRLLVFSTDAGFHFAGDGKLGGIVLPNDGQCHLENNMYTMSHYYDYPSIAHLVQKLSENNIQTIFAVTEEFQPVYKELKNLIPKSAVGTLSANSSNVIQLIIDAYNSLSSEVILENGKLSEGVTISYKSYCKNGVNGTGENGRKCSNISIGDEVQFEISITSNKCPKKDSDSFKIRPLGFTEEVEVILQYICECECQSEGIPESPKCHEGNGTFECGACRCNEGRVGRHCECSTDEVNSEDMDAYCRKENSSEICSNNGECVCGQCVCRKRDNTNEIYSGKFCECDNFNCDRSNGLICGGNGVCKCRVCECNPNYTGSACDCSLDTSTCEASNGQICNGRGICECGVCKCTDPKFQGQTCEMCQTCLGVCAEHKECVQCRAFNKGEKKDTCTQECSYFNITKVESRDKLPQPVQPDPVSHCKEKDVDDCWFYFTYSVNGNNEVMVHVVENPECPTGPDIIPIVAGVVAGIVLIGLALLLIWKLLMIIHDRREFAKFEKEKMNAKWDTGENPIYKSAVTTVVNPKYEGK
# T2 sequence (P08648 42-894 limits assumed): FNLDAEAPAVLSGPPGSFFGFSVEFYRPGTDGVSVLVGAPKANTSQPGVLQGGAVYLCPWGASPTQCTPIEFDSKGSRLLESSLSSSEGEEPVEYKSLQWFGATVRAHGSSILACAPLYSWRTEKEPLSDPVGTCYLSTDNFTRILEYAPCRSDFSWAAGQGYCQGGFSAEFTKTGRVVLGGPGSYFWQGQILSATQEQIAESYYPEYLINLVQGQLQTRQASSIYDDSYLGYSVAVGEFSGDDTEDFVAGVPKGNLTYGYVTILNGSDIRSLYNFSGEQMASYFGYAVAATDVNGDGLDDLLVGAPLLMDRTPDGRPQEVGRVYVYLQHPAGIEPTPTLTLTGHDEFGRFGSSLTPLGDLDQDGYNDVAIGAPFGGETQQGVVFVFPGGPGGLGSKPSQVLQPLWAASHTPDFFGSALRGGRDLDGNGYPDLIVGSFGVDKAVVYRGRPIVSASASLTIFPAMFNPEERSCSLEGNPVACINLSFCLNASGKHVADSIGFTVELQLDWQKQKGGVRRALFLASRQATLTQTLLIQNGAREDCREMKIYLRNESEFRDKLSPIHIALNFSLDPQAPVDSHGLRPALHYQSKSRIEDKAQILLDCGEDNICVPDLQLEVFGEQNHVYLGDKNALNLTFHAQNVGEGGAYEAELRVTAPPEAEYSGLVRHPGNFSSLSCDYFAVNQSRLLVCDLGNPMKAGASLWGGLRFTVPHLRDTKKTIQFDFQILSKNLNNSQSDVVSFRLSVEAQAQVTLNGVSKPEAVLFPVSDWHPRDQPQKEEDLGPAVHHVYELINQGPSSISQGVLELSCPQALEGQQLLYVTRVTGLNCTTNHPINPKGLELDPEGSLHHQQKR
# T2 sequence (P08648 895-1049 limits assumed): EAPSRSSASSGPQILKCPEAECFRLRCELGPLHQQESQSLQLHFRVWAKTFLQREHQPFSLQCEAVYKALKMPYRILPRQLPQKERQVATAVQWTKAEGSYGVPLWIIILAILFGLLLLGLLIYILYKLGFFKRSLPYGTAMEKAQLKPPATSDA
# T2 sequence (P05556 21-798): as the sequence (P05556 21-798) above
# Sequence of integrin αvβ3 (P06756 31-1048): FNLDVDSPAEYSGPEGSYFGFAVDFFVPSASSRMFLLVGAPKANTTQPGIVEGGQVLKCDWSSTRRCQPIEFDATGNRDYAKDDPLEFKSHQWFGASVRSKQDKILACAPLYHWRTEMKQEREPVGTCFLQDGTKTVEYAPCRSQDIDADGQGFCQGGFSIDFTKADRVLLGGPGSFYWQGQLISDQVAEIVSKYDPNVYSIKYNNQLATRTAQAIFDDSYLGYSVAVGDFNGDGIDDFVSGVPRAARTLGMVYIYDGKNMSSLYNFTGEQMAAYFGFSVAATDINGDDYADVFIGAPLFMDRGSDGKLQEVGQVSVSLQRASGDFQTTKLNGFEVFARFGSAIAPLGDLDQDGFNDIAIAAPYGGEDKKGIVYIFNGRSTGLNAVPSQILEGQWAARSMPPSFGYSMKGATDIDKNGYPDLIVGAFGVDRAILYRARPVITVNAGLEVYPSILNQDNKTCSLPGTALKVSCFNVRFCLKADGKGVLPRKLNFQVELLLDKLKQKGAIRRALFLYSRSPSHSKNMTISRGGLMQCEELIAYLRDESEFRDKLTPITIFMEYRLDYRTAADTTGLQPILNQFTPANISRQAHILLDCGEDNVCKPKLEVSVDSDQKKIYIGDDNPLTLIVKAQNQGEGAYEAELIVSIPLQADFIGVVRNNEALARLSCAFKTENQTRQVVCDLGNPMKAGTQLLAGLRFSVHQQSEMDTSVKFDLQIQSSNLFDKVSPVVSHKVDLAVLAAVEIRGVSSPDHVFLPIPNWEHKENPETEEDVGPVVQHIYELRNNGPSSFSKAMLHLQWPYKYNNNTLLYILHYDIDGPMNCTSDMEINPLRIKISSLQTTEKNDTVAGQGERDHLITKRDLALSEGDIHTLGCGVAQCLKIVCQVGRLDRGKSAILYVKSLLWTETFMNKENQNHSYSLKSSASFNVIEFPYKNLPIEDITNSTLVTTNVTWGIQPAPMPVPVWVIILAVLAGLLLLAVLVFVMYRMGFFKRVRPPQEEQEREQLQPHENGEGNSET
# Sequence of integrin αvβ3 (P05106 27-788): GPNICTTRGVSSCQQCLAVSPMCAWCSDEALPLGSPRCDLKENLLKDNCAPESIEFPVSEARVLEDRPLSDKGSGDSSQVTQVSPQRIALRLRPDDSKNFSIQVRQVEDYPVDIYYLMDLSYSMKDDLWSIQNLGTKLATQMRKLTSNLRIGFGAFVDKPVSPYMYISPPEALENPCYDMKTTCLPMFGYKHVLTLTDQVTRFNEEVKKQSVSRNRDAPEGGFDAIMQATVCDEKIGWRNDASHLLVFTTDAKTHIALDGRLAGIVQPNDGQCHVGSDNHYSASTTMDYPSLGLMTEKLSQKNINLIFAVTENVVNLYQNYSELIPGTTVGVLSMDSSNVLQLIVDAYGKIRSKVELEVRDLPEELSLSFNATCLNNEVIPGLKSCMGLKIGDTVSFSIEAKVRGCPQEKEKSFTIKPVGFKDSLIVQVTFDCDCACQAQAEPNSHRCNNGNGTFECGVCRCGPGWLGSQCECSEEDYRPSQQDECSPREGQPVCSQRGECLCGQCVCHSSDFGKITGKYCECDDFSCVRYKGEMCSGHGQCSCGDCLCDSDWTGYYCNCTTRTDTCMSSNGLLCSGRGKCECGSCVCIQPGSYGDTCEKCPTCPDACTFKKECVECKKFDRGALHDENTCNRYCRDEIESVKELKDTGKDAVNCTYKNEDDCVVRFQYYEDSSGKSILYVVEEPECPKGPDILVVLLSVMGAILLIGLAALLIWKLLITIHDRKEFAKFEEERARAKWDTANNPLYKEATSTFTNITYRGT
sequence,measurement,setting,value
LRRFSTAPFAFIDINDVINF [AXT107],β1 integrin subunit in insoluble fraction,"β1 integrin subunit; 100 μM AXT107, long exposure times, high antibody concentrations",never observed in the insoluble fraction
same,interactions of immunoprecipitated α5 integrin with β1,"β1 integrin subunit; Triton X-100 fractionated lysates after AXT107 treatment, data not shown",only found in the soluble fractions
same,binding to integrin αvβ3,integrin αvβ3,binds tightly
same,receptor phosphorylation and downstream signals of RTKs,[1],significantly decreases
same,Erk1/2 phosphorylation,Erk1/2,remained constant
same,interactions between α5 and β1 integrin subunits,[2],significantly reduced
